The target of series [1] is T1, CCNY protein (Homo sapiens, UniProt Q8ND76). In words: Binding of PFTAIRE peptide to CCNY protein in in vitro studies. An excerpt: (§1) Utilizing solid‐phase peptide synthesis, PFTAIRE peptide was produced.
The target in series [2] is T1, CCNY protein. In words: CCNY protein level.
Text: as §1

The subject of another series is AD mouse models. The series can be described thus: Behavior tests in AD mouse models after intravenous injection. It counts as in vivo. The settings on record: intravenously injected.
Text: as §1

On series [3], the source says:
Abstract Background Cyclin Y (CCNY) is a member of cyclin protein family inhibiting long‐term synaptic plasticity, which is related to the learning and memory function in neuronal system. Recently, CCNY has been reported to associate with the cognitive deficits in Alzheimer’s disease (AD). […] This peptide is derived from the domain of cyclin‐dependent kinase 14, a kinase degrading CCNY protein, and this domain is essential for the binding to CCNY. Utilizing solid‐phase peptide synthesis, PFTAIRE peptide was produced. […] We intravenously injected PFTAIRE peptide to AD mouse models and performed behavior tests.

T1 sequence (Q8ND76 whole entry, species assumed): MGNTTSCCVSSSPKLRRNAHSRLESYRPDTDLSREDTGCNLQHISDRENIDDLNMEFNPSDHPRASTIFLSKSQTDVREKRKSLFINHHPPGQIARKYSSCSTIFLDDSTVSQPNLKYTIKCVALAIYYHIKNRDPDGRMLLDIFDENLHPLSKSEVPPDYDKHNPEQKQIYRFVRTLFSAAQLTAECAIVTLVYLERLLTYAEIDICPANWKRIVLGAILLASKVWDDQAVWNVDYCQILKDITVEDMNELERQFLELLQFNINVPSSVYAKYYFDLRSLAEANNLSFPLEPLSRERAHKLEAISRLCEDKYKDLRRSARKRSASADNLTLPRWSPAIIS

For “PFTAIRE peptide: Peptide derived from the domain of cyclin‐dependent kinase 14 essential for binding to CCNY; produced by solid‐phase peptide synthesis”, the “binding to CCNY protein” value in the series with CCNY protein [1] is given as “binds to CCNY protein”. Further, in the series with CCNY protein [2], the CCNY protein level entry was “diminish CCNY protein level”. In addition, the “memory impairments in behavior tests” value in the series with AD mouse models is recorded as “prevents memory impairments”. In series [3], the plasma stability result is “confirmed the plasma and liver microsomal stability”. Further, in series [3] (liver microsomes), the liver microsomal stability result was “confirmed the plasma and liver microsomal stability”.

The values are drawn from paper PMC11713712, “PFTAIRE peptide degrading cyclin Y and ameliorating cognitive deficits in mouse models of Alzheimer’s Disease” (Alzheimer's & Dementia, 2025).
